Data reported in article PMC4259358, “Functional Characterization of Nuclear Localization and Export Signals in Hepatitis C Virus Proteins and Their Role in the Membranous Web” (PLoS ONE, 2014).

Legend:
Settings in all cases: both partners purified
[1] = molecular target: T1, recombinant XPO1 (exportin 1/CRM1) (UniProt O14980 1-1071); test: ELISA; plates coated with synthetic peptide (10 µg/ml, carbonate buffer pH 9.6); increasing concentrations of recombinant NTF, 2 h, room temperature; anti-HIS detection; apparent Kd
T1 sequence (O14980 whole entry): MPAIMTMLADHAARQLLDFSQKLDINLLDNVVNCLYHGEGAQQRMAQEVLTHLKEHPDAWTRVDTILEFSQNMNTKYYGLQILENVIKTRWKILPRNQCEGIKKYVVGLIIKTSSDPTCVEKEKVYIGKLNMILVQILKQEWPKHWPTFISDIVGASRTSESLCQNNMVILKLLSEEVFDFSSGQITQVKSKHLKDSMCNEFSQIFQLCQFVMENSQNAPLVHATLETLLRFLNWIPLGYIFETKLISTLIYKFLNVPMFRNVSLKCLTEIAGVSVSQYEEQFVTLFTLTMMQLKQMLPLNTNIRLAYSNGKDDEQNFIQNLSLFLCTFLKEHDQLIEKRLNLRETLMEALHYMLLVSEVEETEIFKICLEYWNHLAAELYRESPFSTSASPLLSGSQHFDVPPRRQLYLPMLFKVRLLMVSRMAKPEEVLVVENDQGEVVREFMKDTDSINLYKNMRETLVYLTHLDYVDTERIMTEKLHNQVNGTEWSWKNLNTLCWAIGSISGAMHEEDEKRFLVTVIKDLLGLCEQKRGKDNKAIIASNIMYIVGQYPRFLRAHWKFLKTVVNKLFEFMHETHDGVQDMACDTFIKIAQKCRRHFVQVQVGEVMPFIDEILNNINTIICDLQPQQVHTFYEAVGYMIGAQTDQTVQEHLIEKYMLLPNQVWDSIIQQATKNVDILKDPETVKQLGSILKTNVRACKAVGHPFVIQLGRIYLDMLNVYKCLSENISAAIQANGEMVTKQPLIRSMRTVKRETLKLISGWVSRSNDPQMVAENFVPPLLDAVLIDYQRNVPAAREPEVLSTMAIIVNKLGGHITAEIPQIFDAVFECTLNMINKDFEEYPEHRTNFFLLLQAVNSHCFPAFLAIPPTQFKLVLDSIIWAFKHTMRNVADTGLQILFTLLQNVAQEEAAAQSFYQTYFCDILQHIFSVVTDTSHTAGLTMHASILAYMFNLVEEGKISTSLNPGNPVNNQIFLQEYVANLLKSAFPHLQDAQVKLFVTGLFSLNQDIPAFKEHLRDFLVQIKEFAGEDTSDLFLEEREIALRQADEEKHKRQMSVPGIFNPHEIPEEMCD

[2] = molecular target: T2, recombinant IPO5 (importin β3/kap β3) (UniProt O00410-1 1-1097); test: as above
T2 sequence (looked up): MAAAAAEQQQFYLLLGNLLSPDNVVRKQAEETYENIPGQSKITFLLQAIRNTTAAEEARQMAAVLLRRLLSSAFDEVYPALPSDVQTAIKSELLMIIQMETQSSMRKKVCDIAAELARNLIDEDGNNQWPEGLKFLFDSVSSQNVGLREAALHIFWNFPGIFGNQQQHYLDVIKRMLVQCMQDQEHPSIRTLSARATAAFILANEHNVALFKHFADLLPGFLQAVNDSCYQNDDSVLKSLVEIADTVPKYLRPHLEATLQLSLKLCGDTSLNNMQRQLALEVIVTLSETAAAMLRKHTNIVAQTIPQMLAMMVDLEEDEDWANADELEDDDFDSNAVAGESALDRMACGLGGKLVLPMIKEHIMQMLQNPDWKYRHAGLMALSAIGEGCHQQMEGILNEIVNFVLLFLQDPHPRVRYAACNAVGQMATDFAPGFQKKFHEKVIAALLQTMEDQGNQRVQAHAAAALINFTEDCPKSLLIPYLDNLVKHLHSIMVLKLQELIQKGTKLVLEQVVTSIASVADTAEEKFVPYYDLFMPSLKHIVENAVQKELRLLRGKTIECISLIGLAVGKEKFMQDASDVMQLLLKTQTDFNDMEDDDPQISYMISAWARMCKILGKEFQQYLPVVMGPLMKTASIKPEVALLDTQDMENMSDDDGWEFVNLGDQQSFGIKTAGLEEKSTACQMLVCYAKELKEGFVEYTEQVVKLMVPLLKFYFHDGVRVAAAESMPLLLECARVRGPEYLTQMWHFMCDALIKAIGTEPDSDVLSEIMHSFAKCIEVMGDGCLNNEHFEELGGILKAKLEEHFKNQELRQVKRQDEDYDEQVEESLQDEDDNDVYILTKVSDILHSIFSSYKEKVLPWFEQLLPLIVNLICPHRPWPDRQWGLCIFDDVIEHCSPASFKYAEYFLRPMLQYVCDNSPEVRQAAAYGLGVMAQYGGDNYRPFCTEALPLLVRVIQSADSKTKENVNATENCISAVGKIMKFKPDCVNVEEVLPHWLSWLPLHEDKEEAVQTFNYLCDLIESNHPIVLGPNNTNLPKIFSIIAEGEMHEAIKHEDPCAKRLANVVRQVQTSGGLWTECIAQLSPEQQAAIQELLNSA

[3] = molecular target: T3, recombinant IPOA5 (importin α5/kap α1) (UniProt P52294 1-538); test: as above
T3 sequence (P52294 whole entry): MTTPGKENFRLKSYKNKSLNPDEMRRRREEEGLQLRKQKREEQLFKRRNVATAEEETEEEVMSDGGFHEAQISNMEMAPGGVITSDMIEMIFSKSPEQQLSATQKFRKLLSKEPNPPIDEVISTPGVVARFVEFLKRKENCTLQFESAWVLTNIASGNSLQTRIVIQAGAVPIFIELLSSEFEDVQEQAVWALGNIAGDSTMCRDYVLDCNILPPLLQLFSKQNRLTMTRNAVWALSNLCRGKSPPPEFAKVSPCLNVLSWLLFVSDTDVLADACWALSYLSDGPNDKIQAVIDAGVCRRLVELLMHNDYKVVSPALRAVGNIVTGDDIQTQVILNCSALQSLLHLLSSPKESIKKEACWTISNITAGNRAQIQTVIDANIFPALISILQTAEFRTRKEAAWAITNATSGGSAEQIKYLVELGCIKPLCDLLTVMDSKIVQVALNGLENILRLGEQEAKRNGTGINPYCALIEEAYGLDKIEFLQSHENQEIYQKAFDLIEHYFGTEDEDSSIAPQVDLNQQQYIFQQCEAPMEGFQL

[4] = molecular target: T2, recombinant IPO5 (importin β3/kap β3); test: ELISA; plates coated with recombinant HCV protein (10 µg/ml, carbonate buffer pH 9.6); recombinant NTF added, 2 h, room temperature; anti-NTF antibodies; apparent Kd
[5] = molecular target: T3, recombinant IPOA5 (importin α5/kap α1); test: as above
[6] = molecular target: T1, recombinant XPO1 (exportin 1/CRM1); test: as above
[7] = molecular target: T3, recombinant IPOA5 (importin α5/kap α1); test: ELISA; plates coated with synthetic peptide (10 µg/ml, carbonate buffer pH 9.6); increasing concentrations of recombinant NTF, 2 h, room temperature; anti-HIS detection; apparent Kd; remark: listed apart in the source

B1: HIV-1 Rev NES synthetic peptide (fused to penetratin) (peptide)
peptide: LQLPPLERLTLRQIKIWFQNRRMKWKK
notes: source: synthetic peptide (GL Biochem, HPLC >85%)
[1]
  Kd: 114 ± 71.5 nM

B2: NS2 NES synthetic peptide (fused to penetratin) (peptide)
peptide: LILLTLSPHYKLFLARLIWWLQYFITRQIKIWFQNRRMKWKK
notes: as for B1
[1]
  Kd: 79.8 ± 25.6 nM

B3: Core NLS 1 synthetic peptide (fused to penetratin) (peptide)
peptide: PKPQRKTKRNTNRRPRQIKIWFQNRRMKWKK
notes: as for B1
[2]
  Kd: 34.8 ± 4.54 nM
[3]
  Kd: 161 ± 31.8 nM

B4: recombinant full-length HCV core protein (natural protein)
chain: STNPKPQRKTKRNTNRRPEDVKFPGGGQIVGGVYLLPRRGPRLGVRTTRKTSERSQPRGRRQPIPKDRRSTGKAWGKPGRPWPLYGNEGLGWAGWLLSPRGSRPSWGPTDPRHRSRNVGKVIDTLTCGFADLMGYIPVVGAPLSGAARAVAHGVRVLEDGVNYATGNLPGFPFSIFLLALLSCITVPVSA
[4]
  Kd: 56 ± 2.78 nM
[5]
  Kd: 36.8 ± 4.83 nM
[6]
  Kd: 23.1 ± 4.07 nM

B5: Core NES 1 synthetic peptide (fused to penetratin) (peptide)
peptide: KVIDTLTCGFADLMGRQIKIWFQNRRMKWKK
notes: as for B1
[1]
  Kd: 66.7 ± 11.3 nM

B6: Core NES 2 synthetic peptide (fused to penetratin) (peptide)
peptide: LPGCSFSIFLLALLSCITVPVSARQIKIWFQNRRMKWKK
notes: as for B1
[1]
  Kd: 95.2 ± 26.6 nM

B7: Core NLS 2 synthetic peptide (fused to penetratin) (peptide)
peptide: PRRGPRLGVRRQIKIWFQNRRMKWKK
notes: as for B1
[2]
  Kd: 78.8 ± 6.42 nM
[3]
  Kd: 24.9 ± 1.71 nM

B8: Core NLS 3 synthetic peptide (fused to penetratin) (peptide)
peptide: PRGRRQPIPKDRRSTGKAWGKPRQIKIWFQNRRMKWKK
notes: as for B1
[2]
  Kd: 40.4 ± 7.06 nM
[3]
  Kd: 17.5 ± 0.81 nM

B9: NS2 NLS synthetic peptide (fused to penetratin) (peptide)
peptide: PIIFSPMEKKVIVWGRQIKIWFQNRRMKWKK
notes: as for B1
[7]
  Kd: ~34 nM
[3]
  Kd: 79.2 ± 3.89 nM
